From FireProtDB (doi:10.1126/science.aai7825)

B1: Nicotinate phosphoribosyltransferase wild type, P18133 (protein)
chain: MTQFASPVLHSLLDTDAYKLHMQQAVFHHYYDVHVAAEFRCRGDDLLGIYADAIREQVQAMQHLRLQDDEYQWLSALPFFKADYLNWLREFRFNPEQVTVSNDNGKLDIRLSGPWREVILWEVPLLAVISEMVHRYRSPQADVAQALDTLESKLVDFSALTAGLDMSRFHLMDFGTRRRFSREVQETIVKRLQQESWFVGTSNYDLARRLSLTPMGTQAHEWFQAHQQISPDLANSQRAALAAWLEEYPDQLGIALTDCITMDAFLRDFGVEFASRYQGLRHDSGDPVEWGEKAIAHYEKLGIDPQSKTLVFSDNLDLRKAVELYRHFSSRVQLSFGIGTRLTCDIPQVKPLNIVIKLVECNGKPVAKLSDSPGKTICHDKAFVRALRKAFDLPHIKKAS
B2: Enoyl-[acyl-carrier-protein] reductase [NADH] FabI wild type, P0AEK4 (protein)
chain: MGFLSGKRILVTGVASKLSIAYGIAQAMHREGAELAFTYQNDKLKGRVEEFAAQLGSDIVLQCDVAEDASIDTMFAELGKVWPKFDGFVHSIGFAPGDQLDGDYVNAVTREGFKIAHDISSYSFVAMAKACRSMLNPGSALLTLSYLGAERAIPNYNVMGLAKASLEANVRYMANAMGPEGVRVNAISAGPIRTLAASGIKDFRKMLAHCEAVTPIRRTVTIEDVGNSAAFLCSDLSAGISGEVVHVDGGFSIAAMNELELK
B3: Transcriptional repressor MprA wild type, P0ACR9 (protein)
chain: MDSSFTPIEQMLKFRASRHEDFPYQEILLTRLCMHMQSKLLENRNKMLKAQGINETLFMALITLESQENHSIQPSELSCALGSSRTNATRIADELEKRGWIERRESDNDRRCLHLQLTEKGHEFLREVLPPQHNCLHQLWSALSTTEKDQLEQITRKLLSRLDQMEQDGVVLEAMS
B4: HTH-type transcriptional repressor PurR wild type, P0ACP7 (protein)
chain: MATIKDVAKRANVSTTTVSHVINKTRFVAEETRNAVWAAIKELHYSPSAVARSLKVNHTKSIGLLATSSEAAYFAEIIEAVEKNCFQKGYTLILGNAWNNLEKQRAYLSMMAQKRVDGLLVMCSEYPEPLLAMLEEYRHIPMVVMDWGEAKADFTDAVIDNAFEGGYMAGRYLIERGHREIGVIPGPLERNTGAGRLAGFMKAMEEAMIKVPESWIVQGDFEPESGYRAMQQILSQPHRPTAVFCGGDIMAMGALCAADEMGLRVPQDVSLIGYDNVRNARYFTPALTTIHQPKDSLGETAFNMLLDRIVNKREEPQSIEVHPRLIERRSVADGPFRDYRR
B5: Pyruvate formate-lyase 1-activating enzyme wild type, P0A9N4 (protein)
chain: MSVIGRIHSFESCGTVDGPGIRFITFFQGCLMRCLYCHNRDTWDTHGGKEVTVEDLMKEVVTYRHFMNASGGGVTASGGEAILQAEFVRDWFRACKKEGIHTCLDTNGFVRRYDPVIDELLEVTDLVMLDLKQMNDEIHQNLVGVSNHRTLEFAKYLANKNVKVWIRYVVVPGWSDDDDSAHRLGEFTRDMGNVEKIELLPYHELGKHKWVAMGEEYKLDGVKPPKKETMERVKGILEQYGHKVMF
B6: tRNA pseudouridine synthase D wild type, Q57261 (protein)
chain: MIEFDNLTYLHGKPQGTGLLKANPEDFVVVEDLGFEPDGEGEHILVRILKNGCNTRFVADALAKFLKIHAREVSFAGQKDKHAVTEQWLCARVPGKEMPDLSAFQLEGCQVLEYARHKRKLRLGALKGNAFTLVLREVSNRDDVEQRLIDICVKGVPNYFGAQRFGIGGSNLQGAQRWAQTNTPVRDRNKRSFWLSAARSALFNQIVAERLKKADVNQVVDGDALQLAGRGSWFVATTEELAELQRRVNDKELMITAALPGSGEWGTQREALAFEQAAVAAETELQALLVREKVEAARRAMLLYPQQLSWNWWDDVTVEIRFWLPAGSFATSVVRELINTTGDYAHIAE
B7: NADPH-dependent 7-cyano-7-deazaguanine reductase wild type, Q46920 (protein)
chain: MSSYANHQALAGLTLGKSTDYRDTYDASLLQGVPRSLNRDPLGLKADNLPFHGTDIWTLYELSWLNAKGLPQVAVGHVELDYTSVNLIESKSFKLYLNSFNQTRFNNWDEVRQTLERDLSTCAQGKISVALYRLDELEGQPIGHFNGTCIDDQDITIDNYEFTTDYLENATCGEKVVEETLVSHLLKSNCLITHQPDWGSLQIQYRGRQIDREKLLRYLVSFRHHNEFHEQCVERIFNDLLRFCQPEKLSVYARYTRRGGLDINPWRSNSDFVPSTTRLVRQ
B8: Zinc chaperone YeiR wild type, P33030 (protein)
chain: MTRTNLITGFLGSGKTTSILHLLAHKDPNEKWAVLVNEFGEVGIDGALLADSGALLKEIPGGCMCCVNGLPMQVGLNTLLRQGKPDRLLIEPTGLGHPKQILDLLTAPVYEPWIDLRATLCILDPRLLLDEKSASNENFRDQLAAADIIVANKSDRTTPESEQALQRWWQQNGGDRQLIHSEHGKVDGHLLDLPRRNLAELPASAAHSHQHVVKKGLAALSLPEHQRWRRSLNSGQGYQACGWIFDADTVFDTIGILEWARLAPVERVKGVLRIPEGLVRINRQGDDLHIETQNVAPPDSRIELISSSEADWNALQSALLKLRLATTA
B9: Acetylornithine deacetylase wild type, P23908 (protein)
chain: MKNKLPPFIEIYRALIATPSISATEEALDQSNADLITLLADWFKDLGFNVEVQPVPGTRNKFNMLASIGQGAGGLLLAGHTDTVPFDDGRWTRDPFTLTEHDGKLYGLGTADMKGFFAFILDALRDVDVTKLKKPLYILATADEETSMAGARYFAETTALRPDCAIIGEPTSLQPVRAHKGHISNAIRIQGQSGHSSDPARGVNAIELMHDAIGHILQLRDNLKERYHYEAFTVPYPTLNLGHIHGGDASNRICACCELHMDIRPLPGMTLNELNGLLNDALAPVSERWPGRLTVDELHPPIPGYECPPNHQLVEVVEKLLGAKTEVVNYCTEAPFIQTLCPTLVLGPGSINQAHQPDEYLETRFIKPTRELITQVIHHFCWH
B10: NH(3)-dependent NAD(+) synthetase wild type, P18843 (protein)
chain: MTLQQQIIKALGAKPQINAEEEIRRSVDFLKSYLQTYPFIKSLVLGISGGQDSTLAGKLCQMAINELRLETGNESLQFIAVRLPYGVQADEQDCQDAIAFIQPDRVLTVNIKGAVLASEQALREAGIELSDFVRGNEKARERMKAQYSIAGMTSGVVVGTDHAAEAITGFFTKYGDGGTDINPLYRLNKRQGKQLLAALACPEHLYKKAPTADLEDDRPSLPDEVALGVTYDNIDDYLEGKNVPQQVARTIENWYLKTEHKRRPPITVFDDFWKK
B11: Uncharacterized protein YjaG wild type, P32680 (protein)
chain: MLQNPIHLRLERLESWQHVTFMACLCERMYPNYAMFCQQTGFGDGQIYRRILDLIWETLTVKDAKVNFDSQLEKFEEAIPSADDFDLYGVYPAIDACVALSELVHSRLSGETLEHAVEVSKTSITTVAMLEMTQAGREMSDEELKENPAVEQEWDIQWEIFRLLAECEERDIELIKGLRADLREAGESNIGIIFQQ
B12: Homoserine O-succinyltransferase wild type, P07623 (protein)
chain: MPIRVPDELPAVNFLREENVFVMTTSRASGQEIRPLKVLILNLMPKKIETENQFLRLLSNSPLQVDIQLLRIDSRESRNTPAEHLNNFYCNFEDIQDQNFDGLIVTGAPLGLVEFNDVAYWPQIKQVLEWSKDHVTSTLFVCWAVQAALNILYGIPKQTRTEKLSGVYEHHILHPHALLTRGFDDSFLAPHSRYADFPAALIRDYTDLEILAETEEGDAYLFASKDKRIAFVTGHPEYDAQTLAQEFFRDVEAGLDPDVPYNYFPHNDPQNTPRASWRSHGNLLFTNWLNYYVYQITPYDLRHMNPTLD
B13: Transcriptional regulatory protein PhoP wild type, P23836 (protein)
chain: MRVLVVEDNALLRHHLKVQIQDAGHQVDDAEDAKEADYYLNEHIPDIAIVDLGLPDEDGLSLIRRWRSNDVSLPILVLTARESWQDKVEVLSAGADDYVTKPFHIEEVMARMQALMRRNSGLASQVISLPPFQVDLSRRELSINDEVIKLTAFEYTIMETLIRNNGKVVSKDSLMLQLYPDAELRESHTIDVLMGRLRKKIQAQYPQEVITTVRGQGYLFELR
B14: Ribosomal protein uL3 glutamine methyltransferase wild type, P39199 (protein)
chain: MDKIFVDEAVNELQTIQDMLRWSVSRFSAANIWYGHGTDNPWDEAVQLVLPSLYLPLDIPEDMRTARLTSSEKHRIVERVIRRVNERIPVAYLTNKAWFCGHEFYVDERVLVPRSPIGELINNKFAGLISKQPQHILDMCTGSGCIAIACAYAFPDAEVDAVDISPDALAVAEQNIEEHGLIHNVIPIRSDLFRDLPKVQYDLIVTNPPYVDAEDMSDLPNEYRHEPELGLASGTDGLKLTRRILGNAADYLADDGVLICEVGNSMVHLMEQYPDVPFTWLEFDNGGDGVFMLTKEQLIAAREHFAIYKD
B15: Multidrug efflux pump subunit AcrA wild type, P0AE06 (protein)
chain: MNKNRGFTPLAVVLMLSGSLALTGCDDKQAQQGGQQMPAVGVVTVKTEPLQITTELPGRTSAYRIAEVRPQVSGIILKRNFKEGSDIEAGVSLYQIDPATYQATYDSAKGDLAKAQAAANIAQLTVNRYQKLLGTQYISKQEYDQALADAQQANAAVTAAKAAVETARINLAYTKVTSPISGRIGKSNVTEGALVQNGQATALATVQQLDPIYVDVTQSSNDFLRLKQELANGTLKQENGKAKVSLITSDGIKFPQDGTLEFSDVTVDQTTGSITLRAIFPNPDHTLLPGMFVRARLEEGLNPNAILVPQQGVTRTPRGDATVLVVGADDKVETRPIVASQAIGDKWLVTEGLKAGDRVVISGLQKVRPGVQVKAQEVTADNNQQAASGAQPEQSKS
B16: Acyl-CoA thioester hydrolase YciA wild type, P0A8Z0 (protein)
chain: MSTTHNVPQGDLVLRTLAMPADTNANGDIFGGWLMSQMDIGGAILAKEIAHGRVVTVRVEGMTFLRPVAVGDVVCCYARCVQKGTTSVSINIEVWVKKVASEPIGQRYKATEALFKYVAVDPEGKPRALPVE
B17: Ribosome-recycling factor wild type, P0A805 (protein)
chain: MISDIRKDAEVRMDKCVEAFKTQISKIRTGRASPSLLDGIVVEYYGTPTPLRQLASVTVEDSRTLKINVFDRSMSPAVEKAIMASDLGLNPNSAGSDIRVPLPPLTEERRKDLTKIVRGEAEQARVAVRNVRRDANDKVKALLKDKEISEDDDRRSQDDVQKLTDAAIKKIEAALADKEAELMQF

Settings: Escherichia coli (strain K12); pH 7.5; Thermal; Intensity; HEPES 20mM; transition: 2; whole UniProt chain shown

Protein | Tm [°C]
B1 | 45.7
B2 | 45.3
B3 | 45.9
B4 | 45.6
B5 | 43.4
B6 | 43.8
B7 | 43.9
B8 | 46.2
B9 | 45.9
B10 | 45.1
B11 | 46.1
B12 | 45.7
B13 | 42.6
B14 | 45.5
B15 | 45.7
B16 | 46.3
B17 | 44.4
